Common to all, as to experiment: SAXS
Assay [1] has as its target AIF H454A mutant (UniProt O95831).
Assay [2] deals with AIF R529A mutant (Cβ-clasp) (UniProt O95831).
Assay [3] has the same target. This is another data set of the same source.

Like-named read-outs stand apart in the source and are kept apart here.

In general, stoichiometry N refers to a count of units in the complex or per binding partner.

In turn, “AIF H454A mutant (from UniProt O95831 55-613) (natural protein)” displayed a stoichiometry N in assay [1] of 2. As for “AIF R529A mutant (Cβ-clasp) (from UniProt O95831 55-613) (natural protein)”, the stoichiometry N in assay [2] and in assay [3] was 2 throughout.
